Test results: PMC6255862, “A quaternary tetramer assembly inhibits the deubiquitinating activity of USP25” (Nature Communications, 2018)
“And” between values parts separate entries of the source, which are not always exact repeats. Identical values can stand only once. Each block holds one molecule with its values, some of them ahead of it.

Legend:
[1] = biological target: USP25 Y454F (human) (UniProt Q9UHP3); assay: SEC; oligomer state of USP25 point mutants (Supplementary Figures 6 and 11, not shown); by the methods all USP25 constructs were loaded on a Superdex 16 column in 100 mM NaCl, 20 mM Tris-HCl pH 8.0, 1 mM β-mercaptoethanol and run on native PAGE
[2] = biological target: USP25CD (human USP25 with the NTD and the CTD deleted) (human); assay: SEC; analytical gel filtration of all truncation constructs run in parallel under identical conditions, Superdex 16 column, 100 mM NaCl, 20 mM Tris-HCl pH 8.0, 1 mM β-mercaptoethanol; oligomer from elution time against expected molecular weight
[3] = biological target: USP25CD ΔIL (USP25 catalytic domain construct with the IL-loop, Cys465 to Pro537, replaced by Gly-Ser-Gly) (human); assay: as above
[4] = biological target: USP25 Y454E (human) (UniProt Q9UHP3); assay: SEC; oligomer state of USP25 point mutants (Supplementary Figures 6 and 11, not shown); by the methods all USP25 constructs were loaded on a Superdex 16 column in 100 mM NaCl, 20 mM Tris-HCl pH 8.0, 1 mM β-mercaptoethanol and run on native PAGE
[5] = biological target: the molecule itself; assay: SEC; analytical gel filtration of all truncation constructs run in parallel under identical conditions, Superdex 16 column, 100 mM NaCl, 20 mM Tris-HCl pH 8.0, 1 mM β-mercaptoethanol; oligomer from elution time against expected molecular weight
[6] = biological target: the molecule itself; assay: SEC; purification of USP25NCD: preparative Superdex 200 gel filtration, anion exchange of the two peak fractions, analytical gel filtration (Superdex 16) of the dimer and tetramer fractions; 100 mM NaCl, 20 mM Tris-HCl pH 8.0, 1 mM β-mercaptoethanol
[7] = biological target: T1, USP25FL (full-length human USP25) (human), Q9UHP3; assay: SEC; analytical gel filtration of all truncation constructs run in parallel under identical conditions, Superdex 16 column, 100 mM NaCl, 20 mM Tris-HCl pH 8.0, 1 mM β-mercaptoethanol; oligomer from elution time against expected molecular weight; conditions: remark: other sources report otherwise
T1 chain: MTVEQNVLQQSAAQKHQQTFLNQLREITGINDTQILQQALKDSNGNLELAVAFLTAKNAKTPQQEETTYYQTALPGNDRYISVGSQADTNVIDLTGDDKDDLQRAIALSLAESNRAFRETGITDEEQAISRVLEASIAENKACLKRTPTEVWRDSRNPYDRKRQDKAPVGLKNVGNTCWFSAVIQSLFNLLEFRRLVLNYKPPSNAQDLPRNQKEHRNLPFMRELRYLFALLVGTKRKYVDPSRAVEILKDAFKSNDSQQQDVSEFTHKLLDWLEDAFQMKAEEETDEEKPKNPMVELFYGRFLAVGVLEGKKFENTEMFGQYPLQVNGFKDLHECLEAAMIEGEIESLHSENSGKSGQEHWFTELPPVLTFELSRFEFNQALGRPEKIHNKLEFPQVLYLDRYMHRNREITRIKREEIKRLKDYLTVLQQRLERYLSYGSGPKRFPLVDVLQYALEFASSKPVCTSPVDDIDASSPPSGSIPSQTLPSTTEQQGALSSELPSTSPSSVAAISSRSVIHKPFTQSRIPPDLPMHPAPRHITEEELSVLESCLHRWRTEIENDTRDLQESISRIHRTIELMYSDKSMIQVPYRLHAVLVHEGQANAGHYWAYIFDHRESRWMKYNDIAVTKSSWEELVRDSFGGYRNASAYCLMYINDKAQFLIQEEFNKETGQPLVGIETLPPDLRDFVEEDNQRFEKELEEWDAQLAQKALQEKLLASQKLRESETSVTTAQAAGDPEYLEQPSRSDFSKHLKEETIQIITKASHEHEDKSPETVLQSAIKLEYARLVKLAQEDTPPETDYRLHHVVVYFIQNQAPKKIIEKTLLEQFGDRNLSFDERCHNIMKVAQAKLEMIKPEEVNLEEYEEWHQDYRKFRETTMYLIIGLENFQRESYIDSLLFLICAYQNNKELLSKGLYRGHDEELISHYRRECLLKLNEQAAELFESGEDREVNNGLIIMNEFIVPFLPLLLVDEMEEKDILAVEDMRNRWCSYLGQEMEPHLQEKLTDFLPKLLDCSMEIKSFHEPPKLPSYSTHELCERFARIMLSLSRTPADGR

B1: USP25NCD ΔIL (USP25 18-714 with the IL-loop, Cys465 to Pro537, replaced by Gly-Ser-Gly) (enzyme, human)
chain: QTFLNQLREITGINDTQILQQALKDSNGNLELAVAFLTAKNAKTPQQEETTYYQTALPGNDRYISVGSQADTNVIDLTGDDKDDLQRAIALSLAESNRAFRETGITDEEQAISRVLEASIAENKACLKRTPTEVWRDSRNPYDRKRQDKAPVGLKNVGNTCWFSAVIQSLFNLLEFRRLVLNYKPPSNAQDLPRNQKEHRNLPFMRELRYLFALLVGTKRKYVDPSRAVEILKDAFKSNDSQQQDVSEFTHKLLDWLEDAFQMKAEEETDEEKPKNPMVELFYGRFLAVGVLEGKKFENTEMFGQYPLQVNGFKDLHECLEAAMIEGEIESLHSENSGKSGQEHWFTELPPVLTFELSRFEFNQALGRPEKIHNKLEFPQVLYLDRYMHRNREITRIKREEIKRLKDYLTVLQQRLERYLSYGSGPKRFPLVDVLQYALEFASSKPVGSGRHITEEELSVLESCLHRWRTEIENDTRDLQESISRIHRTIELMYSDKSMIQVPYRLHAVLVHEGQANAGHYWAYIFDHRESRWMKYNDIAVTKSSWEELVRDSFGGYRNASAYCLMYINDKAQFLIQEEFNKETGQPLVGIETLPPDLRDFVEEDNQRFEKELEEWDAQLAQKALQE
notes: USP25, human, from Gln18 to the residue before the deletion (deletion from Cys465 to Pro537); three-amino-acid linker Gly-Ser-Gly in place of the deleted stretch; USP25, human, from the residue after the deletion to Glu714; also called ΔIL USP25NCD; USP25NCD ∆IL; not shown: Smt3, N-terminal, cleaved
stoichiometry N [5]: 2

B2: USP25NCD (human USP25, N-terminal domain and USP-like catalytic domain, Gln18 to Glu714) (enzyme, UniProt Q9UHP3 18-714, looked up)
chain: QTFLNQLREITGINDTQILQQALKDSNGNLELAVAFLTAKNAKTPQQEETTYYQTALPGNDRYISVGSQADTNVIDLTGDDKDDLQRAIALSLAESNRAFRETGITDEEQAISRVLEASIAENKACLKRTPTEVWRDSRNPYDRKRQDKAPVGLKNVGNTCWFSAVIQSLFNLLEFRRLVLNYKPPSNAQDLPRNQKEHRNLPFMRELRYLFALLVGTKRKYVDPSRAVEILKDAFKSNDSQQQDVSEFTHKLLDWLEDAFQMKAEEETDEEKPKNPMVELFYGRFLAVGVLEGKKFENTEMFGQYPLQVNGFKDLHECLEAAMIEGEIESLHSENSGKSGQEHWFTELPPVLTFELSRFEFNQALGRPEKIHNKLEFPQVLYLDRYMHRNREITRIKREEIKRLKDYLTVLQQRLERYLSYGSGPKRFPLVDVLQYALEFASSKPVCTSPVDDIDASSPPSGSIPSQTLPSTTEQQGALSSELPSTSPSSVAAISSRSVIHKPFTQSRIPPDLPMHPAPRHITEEELSVLESCLHRWRTEIENDTRDLQESISRIHRTIELMYSDKSMIQVPYRLHAVLVHEGQANAGHYWAYIFDHRESRWMKYNDIAVTKSSWEELVRDSFGGYRNASAYCLMYINDKAQFLIQEEFNKETGQPLVGIETLPPDLRDFVEEDNQRFEKELEEWDAQLAQKALQE
notes: USP25, human, residues 18-714 of the 1055-residue protein (Met1 to Arg1055); A His tag ahead of Smt3 is surmised from the Ni2+ purification; also called USP25NCD tetramer; USP25NCD dimer; not shown: Smt3, N-terminal, cleaved
stoichiometry N [6]: 2 and 4

B4: USP25FL ΔIL (full-length USP25 with the IL-loop, Cys465 to Pro537, replaced by Gly-Ser-Gly) (enzyme, human)
chain: MTVEQNVLQQSAAQKHQQTFLNQLREITGINDTQILQQALKDSNGNLELAVAFLTAKNAKTPQQEETTYYQTALPGNDRYISVGSQADTNVIDLTGDDKDDLQRAIALSLAESNRAFRETGITDEEQAISRVLEASIAENKACLKRTPTEVWRDSRNPYDRKRQDKAPVGLKNVGNTCWFSAVIQSLFNLLEFRRLVLNYKPPSNAQDLPRNQKEHRNLPFMRELRYLFALLVGTKRKYVDPSRAVEILKDAFKSNDSQQQDVSEFTHKLLDWLEDAFQMKAEEETDEEKPKNPMVELFYGRFLAVGVLEGKKFENTEMFGQYPLQVNGFKDLHECLEAAMIEGEIESLHSENSGKSGQEHWFTELPPVLTFELSRFEFNQALGRPEKIHNKLEFPQVLYLDRYMHRNREITRIKREEIKRLKDYLTVLQQRLERYLSYGSGPKRFPLVDVLQYALEFASSKPVGSGRHITEEELSVLESCLHRWRTEIENDTRDLQESISRIHRTIELMYSDKSMIQVPYRLHAVLVHEGQANAGHYWAYIFDHRESRWMKYNDIAVTKSSWEELVRDSFGGYRNASAYCLMYINDKAQFLIQEEFNKETGQPLVGIETLPPDLRDFVEEDNQRFEKELEEWDAQLAQKALQEKLLASQKLRESETSVTTAQAAGDPEYLEQPSRSDFSKHLKEETIQIITKASHEHEDKSPETVLQSAIKLEYARLVKLAQEDTPPETDYRLHHVVVYFIQNQAPKKIIEKTLLEQFGDRNLSFDERCHNIMKVAQAKLEMIKPEEVNLEEYEEWHQDYRKFRETTMYLIIGLENFQRESYIDSLLFLICAYQNNKELLSKGLYRGHDEELISHYRRECLLKLNEQAAELFESGEDREVNNGLIIMNEFIVPFLPLLLVDEMEEKDILAVEDMRNRWCSYLGQEMEPHLQEKLTDFLPKLLDCSMEIKSFHEPPKLPSYSTHELCERFARIMLSLSRTPADGR
notes: USP25, human, from Met1 to the residue before the deletion (deletion from Cys465 to Pro537); three-amino-acid linker Gly-Ser-Gly in place of the deleted stretch; USP25, human, from the residue after the deletion to Arg1055; also called ΔIL USP25FL; not shown: Smt3, N-terminal, cleaved
stoichiometry N [5]: 2

Other lines, results leading:

stoichiometry N [1]: 4
Molecule: USP25 Y454F (from UniProt Q9UHP3 1-1055) (enzyme)

stoichiometry N [2]: 4
Molecule: USP25CD (human USP25 with the NTD and the CTD deleted) (domain or fragment)

stoichiometry N [3]: 2
Molecule: USP25CD ΔIL (USP25 catalytic domain construct with the IL-loop, Cys465 to Pro537, replaced by Gly-Ser-Gly) (domain or fragment)

stoichiometry N [4]: 2
Molecule: USP25 Y454E (from UniProt Q9UHP3 1-1055) (enzyme)

stoichiometry N [7]: 4
B3: USP25FL (full-length human USP25), Q9UHP3 1-1055 (enzyme)
chain: MTVEQNVLQQSAAQKHQQTFLNQLREITGINDTQILQQALKDSNGNLELAVAFLTAKNAKTPQQEETTYYQTALPGNDRYISVGSQADTNVIDLTGDDKDDLQRAIALSLAESNRAFRETGITDEEQAISRVLEASIAENKACLKRTPTEVWRDSRNPYDRKRQDKAPVGLKNVGNTCWFSAVIQSLFNLLEFRRLVLNYKPPSNAQDLPRNQKEHRNLPFMRELRYLFALLVGTKRKYVDPSRAVEILKDAFKSNDSQQQDVSEFTHKLLDWLEDAFQMKAEEETDEEKPKNPMVELFYGRFLAVGVLEGKKFENTEMFGQYPLQVNGFKDLHECLEAAMIEGEIESLHSENSGKSGQEHWFTELPPVLTFELSRFEFNQALGRPEKIHNKLEFPQVLYLDRYMHRNREITRIKREEIKRLKDYLTVLQQRLERYLSYGSGPKRFPLVDVLQYALEFASSKPVCTSPVDDIDASSPPSGSIPSQTLPSTTEQQGALSSELPSTSPSSVAAISSRSVIHKPFTQSRIPPDLPMHPAPRHITEEELSVLESCLHRWRTEIENDTRDLQESISRIHRTIELMYSDKSMIQVPYRLHAVLVHEGQANAGHYWAYIFDHRESRWMKYNDIAVTKSSWEELVRDSFGGYRNASAYCLMYINDKAQFLIQEEFNKETGQPLVGIETLPPDLRDFVEEDNQRFEKELEEWDAQLAQKALQEKLLASQKLRESETSVTTAQAAGDPEYLEQPSRSDFSKHLKEETIQIITKASHEHEDKSPETVLQSAIKLEYARLVKLAQEDTPPETDYRLHHVVVYFIQNQAPKKIIEKTLLEQFGDRNLSFDERCHNIMKVAQAKLEMIKPEEVNLEEYEEWHQDYRKFRETTMYLIIGLENFQRESYIDSLLFLICAYQNNKELLSKGLYRGHDEELISHYRRECLLKLNEQAAELFESGEDREVNNGLIIMNEFIVPFLPLLLVDEMEEKDILAVEDMRNRWCSYLGQEMEPHLQEKLTDFLPKLLDCSMEIKSFHEPPKLPSYSTHELCERFARIMLSLSRTPADGR
